Assay results from article PMC4783942, “Microwave-Assisted Synthesis of Glycoconjugates by Transgalactosylation with Recombinant Thermostable β-Glycosidase from Pyrococcus” (International Journal of Molecular Sciences, 2016).

Substrate: CC(=O)N[C@@H]1[C@@H](O)[C@H](O)[C@@H](CO)O[C@H]1NC(=S)NCCNC(=O)OC(C)(C)C
Experiment: transgalactosylation kinetics, HPLC
Format: biochemical, Pyrococcus woesei
Details: acceptor substrate varied, donor lactose, 85 °C thermal heating, citrate-phosphate buffer pH 5.5

B1: β-glycosidase from Pyrococcus woesei (DSM 3773) (Pyrococcus woesei; T436I) (protein)
chain: MFPEKFLWGVAQSGFQFEMGDKLRRNIDTNTDWWHWVRDKTNIEKGLVSGDLPEEGINNYELYEKDHEIARKLGLNAYRIGIEWSRIFPWPTTFIDVDYSYNESYNLIEDVKITKDTLEELDEIANKREVAYYRSVINSLRSKGFKVIVNLNHFTLPYWLHDPIEARERALTNKRNGWVNPRTVIEFAKYAAYIAYKFGDIVDMWSTFNEPMVVVELGYLAPYSGFPPGVLNPEAAKLAILHMINAHALAYRQIKKFDTEKADKDSKEPAEVGIIYNNIGVAYPKDPNDSKDVKAAENDNFFHSGLFFEAIHKGKLNIEFDGETFIDAPYLKGNDWIGVNYYTREVVTYQEPMFPSIPLITFKGVQGYGYACRPGTLSKDDRPVSDIGWELYPEGMYDSIVEAHKYGVPVYVTENGIADSKDILRPYYIASHIKMIEKAFEDGYEVKGYFHWALTDNFEWALGFRMRFGLYEVNLITKERIPREKSVSIFREIVANNGVTKKIEEELLRG
notes: N-terminal His6-tag (pETDuet-1, tag kept), E. coli Rosetta2(DE3)pLysS; cloned gene differs from AF043283.1 by T436I, as in P. furiosus E08095.1 / AAC44387.1
  Km: 15.6 mM
